A value given as a limit tells only on which side of the number the result lay.

Data set [1] can be described thus: melting temperature (DSF); higher = more thermostable. In outline:
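On a Bio-Rad CFX96, fluorescence of 45 μL enzyme (0 to 0.3 mg/mL) mixed with 5 μL 5X Sypro Orange in sealed PCR plates was followed from 25 °C through 250 cycles of 0.3 °C, with a 0.3 °C/s ramp. The enzymes had been expressed in E. coli C41(DE3), taken up on nickel beads and released by SUMO protease. Melting temperature, measured by differential scanning fluorimetry, is the value given.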

Data set [2] in a line: purified protein yield per well (BCA); higher = higher soluble expression. In outline:
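Purified protein yield per well is reported, as measured by the Pierce Rapid Gold BCA kit. The enzymes came from E. coli C41(DE3) autoinduction cultures of 2 mL with 100 µg/mL kanamycin, held at 37 °C for 2 h and 18 °C for 40 h, then lysed and purified on Ni-charged magnetic beads with SUMO protease release. The detection threshold is 25 ug (0.1 mg/mL), and lower values are under it.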

The nature of data set [3]: PET hydrolysis, aromatic products released after 48 h (umol product/mg enzyme); higher = more PET depolymerization activity. In outline: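 Reactions ran in sealed plates without shaking for 48 h at 40 or 60 °C. Each held 3.5 mg amorphous PET film or crystalline PET powder, 450 μL buffer and 5 μg (50 μL) of tagless, SUMO-cleaved, nickel-purified candidate enzyme. Buffers were 50 mM NaCitrate at pH 4.5 or 5.5, 50 mM NaPhosphate at pH 6.5 or 7.5, and glycine at pH 8.5. The supernatant's aromatic product, read at 260 and 280 nm against buffer blanks, gives PET hydrolysis activity per mg enzyme.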

[4] abbreviates: substrate: cryPow, 40 °C, pH 5.5.
Where [5] appears, read: substrate: cryPow, 40 °C, pH 6.5.
Where [6] appears, read: substrate: cryPow, 40 °C, pH 7.5.
Where [7] appears, read: substrate: cryPow, 60 °C, pH 5.5.
Setting [8] is: substrate: cryPow, 60 °C, pH 6.5.
Where [9] appears, read: substrate: cryPow, 60 °C, pH 7.5.
[10] abbreviates: substrate: cryPow, 40 °C, pH 4.5.

As for “STRNQEPTLQSIEAARGPYEIATQSVPPAVNTGFGGGTIYYPATTGAGKFGAVALSPGYMEKEYSFSWLGTRLASQGFVVFIINTQNSEEFPSARTDELLASLNYLTQTSEVRDRVDPNRLAVMGHSMGGGAALEAAEKNQSLRAVISMTPWNIKTTYSDIKTPTLIIGAQYDNIAPVHDHAQPSYASLPNDLAKSYLELRNGNHFSPNMENTAIARSSTVWLKRFVDGDTRYNKFICPGPTVGDEFNIVQSNCPIL [DP079]”, the melting temperature in data set [1] was determined as 60.4 C. The “purified protein yield per well” value in data set [2] turned out to be 281 µg. Also, the PET hydrolysis in data set [3] (substrate: aFilm, 40 °C, pH 5.5) was less than 3; in data set [3] (substrate: aFilm, 40 °C, pH 6.5), less than 3; in data set [3] (substrate: aFilm, 40 °C, pH 7.5), less than 3; in data set [3] (substrate: aFilm, 40 °C, pH 8.5), less than 3; in data set [3] (substrate: aFilm, 60 °C, pH 5.5), less than 3; in data set [3] (substrate: aFilm, 60 °C, pH 6.5), less than 3. Also, the PET hydrolysis is less than 3 in data set [3] (substrate: aFilm, 60 °C, pH 7.5); less than 3 in data set [3] (substrate: aFilm, 60 °C, pH 8.5); less than 3 in data set [3] (setting [4]); less than 3 in data set [3] (setting [5]); less than 3 in data set [3] (setting [6]); less than 3 in data set [3] (substrate: cryPow, 40 °C, pH 8.5). Besides, the PET hydrolysis was less than 3 in data set [3] (setting [7]); less than 3 in data set [3] (setting [8]); less than 3 in data set [3] (setting [9]); less than 3 in data set [3] (substrate: cryPow, 60 °C, pH 8.5).
As to “TDNPHQRGPNPSQASISANRGTFATAETSVGSGNGFGAAKIYYPTDTGQGTFGAIAVSPGYTATWAAEGAWMGHWLASFGFVVIGIDTINRNDFDVARGTQLLAALDYLTQRSSVRTRVDPSRLAVMGHSMGGGGTISAALRRPTLKAAIGLAPYSPSQTTTGMQVPTVLLAGQNDGTSTPASIITLHNNIPASTEKAYLELTGAGHGFPTSNNSVVTRKVIPWMKIFIDQDTRYTQFLCPLQDWTGIRSYRNSCPLLPNDPGTTFSLAGSASGKCVDVPGRVQTNGTGLIIWTCNGAANQHWTRTAAGELRIYGNSKCMDASGQGARVTINSCNGGSGQKWTVGTNGTVTNAASAGCLDTGGTADNAPVIVTTCNGGSGQIWIKRS [ESM184]”, in data set [1], the melting temperature was determined as 43 C. Moreover, the “purified protein yield per well” value in data set [2] was 34 µg. The PET hydrolysis in data set [3] (setting [10]), in data set [3] (setting [4]), in data set [3] (setting [5]) and in data set [3] (setting [6]) was less than 3 in each case.
For “VEIGPNPTSTLLNGNGPFSVSSSSVSSWVSGFGGGTIYYPTASGQYGVIAVCPGYTGTSSSISWFARRLATHGFVTIAMNTNSRFDFPDSRATQLAAALNYLLNSSSSTIRSRIRTADRGVAGHSMGGGGTLRASERDSNLKVGIPLTPWHTDKTWGSLSVPQMIFGADGDTVAPASSHARTFYNSIPSSTKKAYALLNNASHFTPNSTDERIGRYGVAFAKRFVDGDTRYEPFLCGAEHSTYATSWKFDTYLSTCPYGGGSEPEPDYPWWYWWR [ESM162]”, the melting temperature in data set [1] was determined as 69.7 C. In data set [2], the “purified protein yield per well” value turned out to be 31.8 µg. In addition, the PET hydrolysis in data set [3] (setting [10]), in data set [3] (setting [4]), in data set [3] (setting [5]) and in data set [3] (setting [6]) was less than 3 in each case.
In data set [1], “VQIGPAPTKASLEASRGPFTVATTRLSANGHGGGTIYYPTNAGAKVGVIAIVPGYLSYQSSIEWWGPRLASHGFAVVTIDTLTIYDQPSSRSSQQLRALDQVVALGSKSTSPLYNKVDGSRTGVMGWSMGGGGSLISAQNRPSIKAAAPQAPWNTTSNFSSLTVPTLIFACQADVVAPILSHAVPFYNSMSRNPKQYLERTAGDHFCFNNANPTVGLKGVAWMKRFIDGDTRYTSFACSNPNALGFSSFRTERCS [ESM053]” showed a melting temperature of 62.8 C. For the same sequence, the “purified protein yield per well” value in data set [2] amounted to 103 µg. In addition, the PET hydrolysis in data set [3] (setting [10]) is less than 3; in data set [3] (setting [4]), 6; in data set [3] (setting [5]), 10; in data set [3] (setting [6]) it was 32; in data set [3] (substrate: cryPow, 60 °C, pH 4.5) it was less than 3; in data set [3] (setting [7]), less than 3. Further, the PET hydrolysis amounted to 6 in data set [3] (setting [8]) and 10 in data set [3] (setting [9]).
In turn, “VQIGPNPTKSSLEASRGPFSTSQFTVSRPSGYGAGTVYYPTNAGAKVGAIAIVPGFLSYQSSINWWGPRLASHGFVVITIDTYTTGDQPDSRSRQQLAALDQVIALGNTSSSPIYGKVDGSRTGVMGWSMGGGGSLISAKNRPSIKAAAPQAPWNTSTNFSSVTVPTLIFACQSDIVAPVISHAIPFYNSMTRNPKQYLEKTLGDHFCFNNANATVGLKGVAWMKRFVDGDTRYTSFACSNPNAFGFSDFRTARCS [ESM045]” registered a melting temperature in data set [1] of 63.4 C. Moreover, in data set [2], the “purified protein yield per well” value came out at 30.4 µg. In addition, the PET hydrolysis in data set [3] (setting [10]) turned out to be 5; in data set [3] (setting [4]) it was 12; in data set [3] (setting [5]) it was 22; in data set [3] (setting [6]), 35.
